# In the Human Domainome abundance scans (Beltran et al. 2025):
# ± gives the uncertainty stated by the source.
# B1: Protein C-ets-1, residues 55 to 135; numbered along this chain, P14921 (parent)
# chain: GFTKEQQRLGIPKDPRQWTETHVRDWVMWAVNEFSLKGVDFQKFCMNGAALCALGKDCFLELAPDFVGDILWEHLEILQKE
# B2: Transcription factor SOX-11, residues 50 to 117; numbered along this chain, P35716 (parent)
# chain: KRPMNAFMVWSKIERRKIMEQSPDMHNAEISKRLGKRWKMLKDSEKIPFIREAERLRLKHMADYPDYK
# Variants of: B1
# Experiment: abundance fitness (aPCA) (normalised: wild type 0, dead -1); higher = more abundant; growth selection in yeast, the domain comes from the species named
# Conditions: Homo sapiens
row,Variant,abundance fitness
1,C45H,0.052 ± 0.08
2,E81D,-0.003 ± 0.26
3,R8V,-0.122 ± 0.031
4,V31T,0.006 ± 0.044
5,K56H,-0.033 ± 0.082
6,L51D,-0.97 ± 0.073
7,L78D,-0.486 ± 0.097
8,R8D,-0.093 ± 0.066
9,H74V,-0.419 ± 0.039
10,Q6H,-0.235 ± 0.047
11,K37Q,0.005 ± 0.042
12,H74W,-0.611 ± 0.071
13,D65C,-0.057 ± 0.032
14,F2Y,-0.161 ± 0.076
15,E76V,-0.108 ± 0.045
16,K4W,-0.207 ± 0.062
17,D69T,-0.134 ± 0.055
18,L60D,-0.23 ± 0.06
19,L60A,-0.009 ± 0.034
20,S35L,-0.364 ± 0.034
21,V39S,-0.624 ± 0.052
22,F2Q,-0.522 ± 0.15

row,Variant,abundance fitness
1,D40F,-0.685 ± 0.11
2,V31Q,-0.126 ± 0.04
3,E33T,-0.063 ± 0.043
4,L54T,-0.33 ± 0.042
5,L78M,-0.116 ± 0.087
6,F34K,-0.175 ± 0.046
7,G1R,-0.191 ± 0.067
8,E5S,-0.245 ± 0.046
9,A30T,0.003 ± 0.04
10,D69I,-0.038 ± 0.14
11,L36M,-0.343 ± 0.089
12,D25I,-0.033 ± 0.053
13,G38A,-0.202 ± 0.039
14,L75C,-0.964 ± 0.13
15,A49I,-0.237 ± 0.04
16,L60C,-0.091 ± 0.068
17,R8N,-0.16 ± 0.078
18,E20M,-0.078 ± 0.037
19,G55Y,-0.502 ± 0.064
20,K37S,-0.033 ± 0.032
21,L62I,-0.049 ± 0.094
22,D69P,0.015 ± 0.049

row,Variant,abundance fitness
1,H22F,-0.965 ± 0.24
2,V23M,-0.916 ± 0.13
3,V31Y,-0.44 ± 0.066
4,E76Y,0.029 ± 0.036
5,H74D,-0.214 ± 0.074
6,W26H,-0.822 ± 0.089
7,D65A,0.004 ± 0.039
8,M28G,-0.055 ± 0.028
9,Q17N,-0.021 ± 0.072
10,K43H,-0.187 ± 0.087
11,L62P,-0.954 ± 0.11
12,P12W,-0.706 ± 0.093
13,K13G,-0.088 ± 0.034
14,Q17D,0.016 ± 0.07
15,A49Q,-0.011 ± 0.037
16,G10S,-0.062 ± 0.034
17,L60Y,-0.058 ± 0.073
18,H74R,-0.222 ± 0.026
19,V67K,-0.305 ± 0.23
20,L62E,-0.655 ± 0.058
21,V31L,-0.326 ± 0.029
22,I77V,0.029 ± 0.037

row,Variant,abundance fitness
1,W18F,-1.11 ± 0.2
2,F44V,-0.539 ± 0.042
3,D69S,-0.053 ± 0.035
4,T3K,0.025 ± 0.091
5,D14V,-0.602 ± 0.033
6,D57A,-0.049 ± 0.029
7,G55P,0.01 ± 0.037
8,N32E,-0.042 ± 0.043
9,F41Y,0.055 ± 0.055
10,V31K,-0.18 ± 0.054
11,A49C,-0.372 ± 0.036
12,F44P,-0.892 ± 0.1
13,L9Y,-0.158 ± 0.12
14,K80N,0.029 ± 0.19
15,D25A,0.014 ± 0.027
16,I11H,-0.364 ± 0.13
17,R8T,-0.111 ± 0.071
18,L9H,-0.216 ± 0.092
19,R16C,-0.04 ± 0.082

# Variants of: B2
# Experiment: as above
# Conditions: Homo sapiens
row,Variant,abundance fitness
1,K1C,-0.056 ± 0.075
2,K1D,0.21 ± 0.059
3,K1E,0.258 ± 0.17
4,K1F,0.113 ± 0.076
5,K1G,0.103 ± 0.058
6,K1I,-0.048 ± 0.062
7,K1L,-0.137 ± 0.11
8,K1M,-0.421 ± 0.2
9,K1N,0.077 ± 0.06
10,K1S,-0.026 ± 0.067
11,K1T,0.032 ± 0.082
12,K1W,0.006 ± 0.2
13,K1Y,0.032 ± 0.065
14,R2A,-0.178 ± 0.079
15,R2C,0.041 ± 0.054
16,R2D,0.146 ± 0.069
17,R2E,-0.165 ± 0.15
18,R2F,0.091 ± 0.075
19,R2G,0.03 ± 0.049
20,R2H,0.086 ± 0.077
21,R2I,0.113 ± 0.055

row,Variant,abundance fitness
1,R2K,-0.041 ± 0.12
2,R2L,0.037 ± 0.063
3,R2M,0.158 ± 0.096
4,R2N,0.166 ± 0.059
5,R2P,-0.011 ± 0.085
6,R2Q,0.037 ± 0.14
7,R2S,0.064 ± 0.047
8,R2T,0.282 ± 0.061
9,R2V,0.118 ± 0.055
10,R2W,-0.97 ± 0.34
11,R2Y,0.272 ± 0.061
12,P3A,-0.544 ± 0.096
13,P3C,-0.442 ± 0.088
14,P3D,0.525 ± 0.076
15,P3E,0.073 ± 0.18
16,P3F,-0.292 ± 0.12
17,P3H,-0.085 ± 0.077
18,P3I,-0.279 ± 0.1
19,P3K,-0.044 ± 0.18
20,P3L,-0.118 ± 0.085
21,P3M,-0.704 ± 0.45

row,Variant,abundance fitness
1,P3N,0.199 ± 0.077
2,P3Q,0.119 ± 0.21
3,P3R,-0.407 ± 0.077
4,P3S,0.097 ± 0.062
5,P3T,-0.083 ± 0.076
6,P3V,-0.294 ± 0.086
7,M4C,-0.787 ± 0.11
8,M4D,0.059 ± 0.065
9,M4E,-0.004 ± 0.18
10,M4F,-0.186 ± 0.053
11,M4G,-0.28 ± 0.063
12,M4H,-0.423 ± 0.086
13,M4I,0.158 ± 0.05
14,M4K,-0.539 ± 0.23
15,M4L,-0.188 ± 0.064
16,M4N,-0.292 ± 0.058
17,M4Q,-0.248 ± 0.15
18,M4R,-0.874 ± 0.11
19,M4S,-0.334 ± 0.052
20,M4T,-0.145 ± 0.079
21,M4V,0.005 ± 0.051

row,Variant,abundance fitness
1,M4W,-0.251 ± 0.13
2,M4Y,-0.256 ± 0.06
3,N5A,-0.474 ± 0.096
4,N5C,-0.321 ± 0.064
5,N5D,0.147 ± 0.055
6,N5E,-0.172 ± 0.16
7,N5F,-0.712 ± 0.08
8,N5G,-0.433 ± 0.069
9,N5H,-0.621 ± 0.09
10,N5I,-0.601 ± 0.071
11,N5K,-0.956 ± 0.26
12,N5L,-0.65 ± 0.075
13,N5M,-0.724 ± 0.15
14,N5P,-0.544 ± 0.089
15,N5Q,-0.831 ± 0.27
16,N5R,-0.852 ± 0.11
17,N5S,0.104 ± 0.045
18,N5T,0.149 ± 0.056
19,N5V,-0.491 ± 0.069
